According to the supplement of paper PMC10567573:

B1: MTMR15 (parent)
chain: YVKAKKSIDKDEEFAGSSPQSSKS

Variants of: B1
Test: protein stability index of a GFP-peptide fusion (GPS, HEK-293T) (PSI 1-6); higher = more stable
Conditions: c terminus: a fixed tail appended
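Also: lentivirally expressed fusions sorted by FACS into six bins by GFP to DsRed ratio, PSI derived from sequencing read proportions per bin multiplied by bin number.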

Point of comparison: YVKAKKSIDKDEEFAGSSPFSSKS [Q20F], protein stability index 2. Against it:
- YVKAWKSIDKDEEFAGSSPQSSKS [K5W] — lower, 1.6
- YVKALKSIDKDEEFAGSSPQSSKS [K5L] — higher, 2.15
- YVKAAKSIDKDEEFAGSSPQSSKS [K5A] — higher, 3
- YVKAYKSIDKDEEFAGSSPQSSKS [K5Y] — higher, 2.07
- YVKADKSIDKDEEFAGSSPQSSKS [K5D] — higher, 4.22
- YVKAFKSIDKDEEFAGSSPQSSKS [K5F] — higher, 2.44
- YVKAHKSIDKDEEFAGSSPQSSKS [K5H] — higher, 2.8
- YVKAIKSIDKDEEFAGSSPQSSKS [K5I] — higher, 2.29
- YVKAKNSIDKDEEFAGSSPQSSKS [K6N] — higher, 3.25
- YVKAKVSIDKDEEFAGSSPQSSKS [K6V] — higher, 2.64
- YVKAKPSIDKDEEFAGSSPQSSKS [K6P] — higher, 3.05
- YVKAKHSIDKDEEFAGSSPQSSKS [K6H] — higher, 3.26
- YVKAKMSIDKDEEFAGSSPQSSKS [K6M] — higher, 3.16
- YVKAKDSIDKDEEFAGSSPQSSKS [K6D] — higher, 3.87
- YVKAKASIDKDEEFAGSSPQSSKS [K6A] — higher, 2.98
- YVKAKKEIDKDEEFAGSSPQSSKS [S7E] — higher, 3.58
- YVKAKKWIDKDEEFAGSSPQSSKS [S7W] — higher, 2.27
- YVKAKKAIDKDEEFAGSSPQSSKS [S7A] — higher, 3.15
- YVKAKKNIDKDEEFAGSSPQSSKS [S7N] — higher, 2.98
- YVKAKKVIDKDEEFAGSSPQSSKS [S7V] — higher, 3.13
- YVKAKKDIDKDEEFAGSSPQSSKS [S7D] — higher, 2.77
- YVKAKKYIDKDEEFAGSSPQSSKS [S7Y] — higher, 2.08
- YVKAKKSIDKDEEFAGSSPYSSKS [Q20Y] — higher, 2.62
- YVKAKKSIDKDEEFAGSSPTSSKS [Q20T] — higher, 3.4
- YVKAKKSIDKDEEFAGSSPCSSKS [Q20C] — higher, 2.82
- YVKAKKSIDKDEEFAGSSPSSSKS [Q20S] — higher, 2.9
- YVKAKKSIDKDEEFAGSSPISSKS [Q20I] — higher, 2.51
- YVKAKKSIDKDEEFAGSSPESSKS [Q20E] — higher, 3.29
- YVKAKKSIDKDEEFAGSSPRSSKS [Q20R] — higher, 2.73
- YVKAKKSIDKDEEFAGSSPGSSKS [Q20G] — higher, 3.27
- YVKAKKSIDKDEIFAGSSPQSSKS [E13I] — higher, 2.05
- YVKAKKSIDKDEAFAGSSPQSSKS [E13A] — higher, 2.65
- YVKAKKSIDKDEGFAGSSPQSSKS [E13G] — higher, 2.82
- YVKAKKSIDKDEKFAGSSPQSSKS [E13K] — higher, 2.56
- YVKAKKSIDKDEVFAGSSPQSSKS [E13V] — higher, 2.31
- YVKAKKSIDKDELFAGSSPQSSKS [E13L] — higher, 2.74
- YVKAKKSIDKDEEFGGSSPQSSKS [A15G] — higher, 3.45
- YVKAKKSIDKDEEFDGSSPQSSKS [A15D] — higher, 3.63
- YVKAKKSIDKDEEFSGSSPQSSKS [A15S] — higher, 2.92
- YVKAKKSIDKDEEFVGSSPQSSKS [A15V] — higher, 3.42
- YVKAKKSIDKDEEFRGSSPQSSKS [A15R] — higher, 2.87
- YVKAKKSIDKDEEFIGSSPQSSKS [A15I] — higher, 3.25
- YVKAKKSIDKDEEFEGSSPQSSKS [A15E] — higher, 3.31
- YVKAKKSIDKDEEFYGSSPQSSKS [A15Y] — higher, 2.14
- YVKAKKSIDKDEEFAGSSPQGSKS [S21G] — higher, 2.61
- YVKAKKSIDKDEEFAGSSPQRSKS [S21R] — higher, 2.78
